For the test, the target named is full-length N1-CA09-sNAp-130, membrane-anchored, C-terminal myc tag (Influenza A virus A/California/07/2009 …, UniProt C7FH46, stabilised). Description: flow cytometry on cells. The conditions noted are these: one partner purified. A general note: A flow cytometer gives signals particle by particle.

B1: CD6 IgG (antibody, V domains shown)
VH: QVKLQESGGGLVQPKGSLKLSCAASGFTFNTYAMNWVRQAPGKGLEWVARIRSKSNNYATFYADSVKDRFTISRDDSQSMLYLQMHNLKTDDTAMYYCVRPSIYYYASGYLDVWGAGTTVTVSS
VL: QIVLSQSPAILSASPGEKVTMTCRTSSSVSYMHWYQQKPGSSPKPWIYATSNLASGVPFRFSGSGSGTSYSLTISRVEAEDAATYYCQQWNSNPPTFGGGTKLEIK
notes: copies: 2 + 2
On to B1, for which the binding result is given as “binds”.

The values above are taken from publication PMC8983682 (Nature Communications, 2022).
